In the assay the target is Fluorescein-labeled ATS-FL Q150C variant (Plasmodium falciparum). As to the kind of experiment: fluorescence polarisation.

“PFI1780w fragment spanning residues 80-280 (PHISTc-type domain) (domain or fragment)” registered a dissociation constant Kd of 150 µM.

These data come from article PMC3293552.
